From the nanobody polyreactivity screen of Harvey et al. (2022)

experiment: yeast display, Sf9 membrane polyspecificity reagent, FACS + sequencing; frameworks hold sequencing errors
How it was run: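 Synthetic nanobody libraries on Saccharomyces cerevisiae BJ5465 were galactose-induced for 36–48 hours, stained 1 hour at 4 °C with 10% biotinylated, detergent-solubilized Sf9 membrane reagent and enriched on streptavidin microbeads. FACS then separated cells into low and high (top ~1%) gates by anti-HA (expression) and streptavidin (reagent binding) fluorescence. Genes were colony-PCR amplified, MiSeq 2 × 250 sequenced and CDR-length filtered. A clone's polyreactivity label is that of its gate of origin.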

Sequence	polyreactivity (PSR sort gate)
QVQLVESGGGLVQAGGSLRLSCAASGFIFKWYAMGWYRQAPGKERELVAAISTSGGSTYYADSVKGRFTISRDNAKNTVYLQMNSLKPEDTAVYYCAVLVGRLVWSYNHWGQGTQVTVSS	high polyreactivity
QVQLVESGGGLVQAGGSLRLSCAASGFIFKYYAMGWYRQAPGKERELVASISSYGSSTYYADSVKGRFTSSRDSAKNTVYLQLNSVKPEDTAVYYCAAPYNFWNFFDLIYVWDGYDYWGQGTQVTVSS	low polyreactivity
QVQLVESGGGLVQAGGSLRLSCAASGFIFLFNAMGWYRQAPGNESELVAAIYDDGSTYYADSVKGRFTLSLDNAKNTVYLHMNSVKPEDTAVYYCAAPRRGRWIRGYLGQGTQVTVSS	high polyreactivity
QVQLVESGGGLVQAGGSLRLSCAASGFIFLGNVMGWYRQAPGKERELVAAINWSDGSTYYADSVKGRFTISRDNAKNTVYLQMNSLKPEDTAVYYCNVDAGVEGGTVDYWGQGTQVTVSS	low polyreactivity
QVQLVESGGGLVQAGGSLRLSCAASGFIFLGYAMGWYRQAPGKERELVAAISSDSDTNYADSVKGRFTISRDNAKNTVFLQMNSLKPEDTAVYYCNADIDSYREMDYWGQGTLVTVSS	low polyreactivity
QVQLVESGGGLVQAGGSLRLSCAASGFIFLKYAMGWYRQAPGKERELVASITSTGGSTYYADSVKGRFTISRDNAKNTVYLQMNSQKPEDTAVYYCARDTVPSSDPWYYAWGGFEFDYWGQGTQVTVSS	low polyreactivity
QVQLVESGGGLVQAGGSLRLSCAASGFIFLNYAMGWYRQAPGKERELVAAITSGGNTTYADSVKGRFTISRDNAKNTVYLQMNSLKPEDTAVYYCAADGWRAGPGDYWGQGTQVIVSS	low polyreactivity
QVQLVESGGGLVQAGGSLRLSCAASGFIFLPYAMGWYRQAPGKERELVAAITRGGRTYYADSVKGRFTISRDNAKNTVYLQMNSLKPEDTAVYYCAATTYLVWGYNYWGQGTQVTVSS	low polyreactivity
QVQLVESGGGLVQAGGSLRLSCAASGFIFLQYVMGWYRQAPGKERELVAAITSGGSTYYADSVKGRFTISRDNAKNTVYLQMNSLKPEDTAVYFCATDVADNTFYALYGYDYWGQGTQVTVSS	low polyreactivity
QVQLVESGGGLVQAGGSLRLSCAASGFIFLRYGMGWYRQAPGKERELVASIDSTGGSTYADSVKGRFTISRDNAKNTVYLQMNSLKPEDTAVYYCAAAYYIVSQRDYWGQGTQVTVSS	low polyreactivity
QVQLVESGGGLVQAGGSLRLSCAASGFIFLSYAMGWYRPAPGKERELVAAISGRGGSTYYADSVKGRFTISRDNAKNTVYLQMNSLKPEDTAVYYCAARLYRYNYDYWGQGTQVTVSS	high polyreactivity
QVQLVESGGGLVQAGGSLRLSCAASGFIFLVNAMGWYRGAPGKERELVAAISKSTGGTYYADSVKGRFTISRDNAKNTVYLQMNSLKPEDTAVYYCAADEVYPVQRDMDYWGQGTQVTVSS	low polyreactivity
QVQLVESGGGLVQAGGSLRLSCAASGFIFLYNVMGWYRQAPGKERELVAAISWRGGTYYAHSVKGRFTISRDNAKNTVYLQMNSLKPEDTAVYYCAKKQRYYGRMDYWGQGTQVTVSS	high polyreactivity
QVQLVESGGGLVQAGGSLRLSCAASGFIFLYYAMGWYRQAPGKERELVAAISNGGSTYYADSVKGRFTISRDNAKNTVYLQMNSLKPEDTAVYYCAARYGYRYTLKYGYWGQGTQVTVSS	high polyreactivity
QVQLVESGGGLVQAGGSLRLSCAASGFIFNAYTMGWYRKAPGKERELFAAISRRGSSTYYADSVKGRFTISRDNAMNTVYLQMNSLKPEDTAVYYCNTRLYARDDSDFDYWGQGPQVTVSS	high polyreactivity
QVQLVESGGGLVQAGGSLRLSCAASGFIFNIYAMGWYRQAPGKERELVAAITFSGGSTYYADSVKGRFTISRDNAKNTVYLQMNSLKPEDTAVYYCAADYLSEYTTYDYWGQGTQVTVSS	low polyreactivity
QVQLVESGGGLVQAGGSLRLSCAASGFIFNRYAMGWYRQAPGKERELVAAISFSGGSTYYADSVKGRFTISRDNAKNTVYLQMNSLKPEDTAVYYCAASWYRYGYWGQGTQVTVSS	high polyreactivity
QVQLVESGGGLVQAGGSLRLSCAASGFIFNRYAMGWYRQAPGKERELVADITGGSTYYADSVKGRFTISRDNAKNTVYLQMNSQKPEDTEVYYCAADRYGFYLESDYWGQGTQVTVSS	low polyreactivity
QVQLVESGGGLVQAGGSLRLSCAASGFIFNTMGWYRQARGKERELVARITRGGSTDYADSVKGRFTISRDNAKNTVYLQMNSLKPEDTAFYYCAAAIGHFERFYWGQGTQVTVSS	low polyreactivity
QVQLVESGGGLVQAGGSLRLSCAASGFIFNYNAMGWYRQAPGKERELVAAISGTGVRTYYADSVKGRFTISRDNAKNTVYLQMNRLKPEDTAVYYCNAYYGYIPVSGYRNDYWGQGTQVTVSS	low polyreactivity
QVQLVESGGGLVQAGGSLRLSCAASGFIFNYNTMGWYRQAPGKERELVAAISFSGGSTYYADSVKGRFTISRDNAKNTVYLQMNSLKPEDTAVYYCATRNGRQYSVSYRYYYWGQGTQVTVSS	low polyreactivity
